Measured values as given in publication PMC3439924 (Nucleic Acids Research, 2012).
Like-named read-outs stand apart in the source and are kept apart here.

Assays:
[1] = target: the molecule itself; experiment: crystal structure
[2] = target: T1, RNase T E92G (Escherichia coli, UniProt P30014 1-215, E92G); experiment: X-ray crystallography
T1 sequence: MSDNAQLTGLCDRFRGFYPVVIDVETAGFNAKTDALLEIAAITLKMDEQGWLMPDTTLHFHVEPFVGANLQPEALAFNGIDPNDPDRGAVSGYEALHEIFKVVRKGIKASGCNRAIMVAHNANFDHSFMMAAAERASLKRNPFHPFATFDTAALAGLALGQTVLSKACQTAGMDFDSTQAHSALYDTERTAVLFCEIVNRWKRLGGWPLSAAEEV

[3] = target: T2, RNase T (Escherichia coli, UniProt P30014 1-215); experiment: X-ray crystallography
T2 sequence: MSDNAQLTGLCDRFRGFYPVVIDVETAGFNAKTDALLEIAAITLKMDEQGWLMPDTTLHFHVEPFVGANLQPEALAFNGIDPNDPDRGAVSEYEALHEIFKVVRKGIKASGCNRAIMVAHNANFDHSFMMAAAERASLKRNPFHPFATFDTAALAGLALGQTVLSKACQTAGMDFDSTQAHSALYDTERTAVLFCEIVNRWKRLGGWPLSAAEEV

[4] = target: T2, RNase T; experiment: X-ray crystallography; remark: listed apart in the source
[5] = target: T1, RNase T E92G; experiment: X-ray crystallography; remark: listed apart in the source

B1: RNase T E92G mutant (E. coli) (enzyme, UniProt P30014 1-215, looked up)
chain: MSDNAQLTGLCDRFRGFYPVVIDVETAGFNAKTDALLEIAAITLKMDEQGWLMPDTTLHFHVEPFVGANLQPEALAFNGIDPNDPDRGAVSGYEALHEIFKVVRKGIKASGCNRAIMVAHNANFDHSFMMAAAERASLKRNPFHPFATFDTAALAGLALGQTVLSKACQTAGMDFDSTQAHSALYDTERTAVLFCEIVNRWKRLGGWPLSAAEEV
**Q.** Does B1 bind [1]?
**A.** binds

B2: RNase T (wild-type, E. coli) (enzyme, UniProt P30014 1-215, looked up)
chain: MSDNAQLTGLCDRFRGFYPVVIDVETAGFNAKTDALLEIAAITLKMDEQGWLMPDTTLHFHVEPFVGANLQPEALAFNGIDPNDPDRGAVSEYEALHEIFKVVRKGIKASGCNRAIMVAHNANFDHSFMMAAAERASLKRNPFHPFATFDTAALAGLALGQTVLSKACQTAGMDFDSTQAHSALYDTERTAVLFCEIVNRWKRLGGWPLSAAEEV
**Q.** Does B2 bind [1]?
**A.** binds

B3: stem-loop DNA, 2-nt 3'-overhang (structured_DNA)
DNA: GGCCCTCTTTAGGGCCTT
**Q.** Does B3 bind [2]?
**A.** binds

B4: ssDNA 3'-end AAC (ssDNA)
DNA: TTACAAC
**Q.** Does B4 bind [3]?
**A.** binds

B5: ssDNA 3'-end ACC (ssDNA)
DNA: TTACACC
**Q.** Does B5 bind [3]?
**A.** binds

B6: ssDNA 3'-end AAA (ssDNA)
DNA: TTATAAA
**Q.** Does B6 bind [4]?
**A.** binds

B7: ssDNA 3'-end TTA (ssDNA)
DNA: GCTTA
**Q.** Does B7 bind [5]?
**A.** binds

B8: ssDNA 3'-end AAT (ssDNA)
DNA: TTACAAT
**Q.** Does B8 bind [5]?
**A.** binds
